Patent publication US20070054259, “Modulation of hnRNP H and treatment of DM1” (City of Hope, published 2007)

How the values were obtained:
Conditions in all cases: tags: bacterially expressed, purified as Markovtsov et al. 2000
hnRNP H (recombinant) [1] = target: T1, hnRNP H (recombinant) (UniProt P31943 P31943:1-449); experiment: EMSA; native gel, lane 3
T1 sequence: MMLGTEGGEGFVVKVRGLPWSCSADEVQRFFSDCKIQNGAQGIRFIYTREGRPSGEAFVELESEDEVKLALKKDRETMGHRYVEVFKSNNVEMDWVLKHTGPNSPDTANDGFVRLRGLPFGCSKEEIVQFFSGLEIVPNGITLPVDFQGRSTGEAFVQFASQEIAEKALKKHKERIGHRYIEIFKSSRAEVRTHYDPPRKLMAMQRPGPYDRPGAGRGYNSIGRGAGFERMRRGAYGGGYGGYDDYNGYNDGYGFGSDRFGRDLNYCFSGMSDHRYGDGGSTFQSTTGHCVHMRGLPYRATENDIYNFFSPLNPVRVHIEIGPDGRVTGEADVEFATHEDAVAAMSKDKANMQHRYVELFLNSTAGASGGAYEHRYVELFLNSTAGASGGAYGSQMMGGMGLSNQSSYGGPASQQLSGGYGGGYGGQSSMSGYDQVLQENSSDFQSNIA
Excerpt: (§1) Based on previous data FIGS. 1B, 1C, 2A and 2B) we speculated that the binding of hnRNP H to CUG repeats is proportional to the length of the repeats. The recombinant form of hnRNP H was indubated with different length CUG repeats and complexes resolved in a native gel (FIG. 4A). No binding to the CUG 5 RNA was observed (Lanes 1 and 3). When the CUG 46 RNA was used in this assay, only a small fraction of the protein was gel shifted (marked as * in lane 6). In contrast, the CUG85 RNA was much more gel shifted (marked as * in lane 9). […] Combined all hnRNP H binds to CUG repeats in a proportional way depends on the length of the (CUG) repeats.

hnRNP H (recombinant) [2] = target: T1, hnRNP H (recombinant); experiment: EMSA; much more shifted than CUG46; 50 kDa UV crosslink but no 100 kDa dimer without extract
Excerpt: as §1

hnRNP H (recombinant) [3] = target: T1, hnRNP H (recombinant); experiment: EMSA; 10 ng protein; binding abolished by branch site mutation
Excerpt: as §1
The different RNAs used in these assays have CUG repeats as well as a splicing acceptor site derived from a downstream of the DMPK gene (Gourdon, 1997). To understand the role of this 3′ branch site in the binding reaction, a mutant CUG85 clone containing a mutant form of the branch site was created (marked as CUG85′, FIG. 1A).

Binder: CUGCUGCUGCUGCUGGGGGGAUCACAGACCA (ssRNA) [(CUG)5 DMPK RNA]
- binding result (hnRNP H (recombinant) [1]): no binding

B1: (CUG)85 DMPK RNA (ssRNA)
RNA: CUGCUGCUGCUGCUGCUGCUGCUGCUGCUGCUGCUGCUGCUGCUGCUGCUGCUGCUGCUGCUGCUGCUGCUGCUGCUGCUGCUGCUGCUGCUGCUGCUGCUGCUGCUGCUGCUGCUGCUGCUGCUGCUGCUGCUGCUGCUGCUGCUGCUGCUGCUGCUGCUGCUGCUGCUGCUGCUGCUGCUGCUGCUGCUGCUGCUGCUGCUGCUGCUGCUGCUGCUGCUGCUGCUGCUGCUGCUGCUGCUGCUGCUGCUGCUGGGGGGAUCACAGACCA
- binding result (hnRNP H (recombinant) [2]): binds

B2: (CUG)85' DMPK RNA, mutated 3' branch site (ssRNA)
RNA: CUGCUGCUGCUGCUGCUGCUGCUGCUGCUGCUGCUGCUGCUGCUGCUGCUGCUGCUGCUGCUGCUGCUGCUGCUGCUGCUGCUGCUGCUGCUGCUGCUGCUGCUGCUGCUGCUGCUGCUGCUGCUGCUGCUGCUGCUGCUGCUGCUGCUGCUGCUGCUGCUGCUGCUGCUGCUGCUGCUGCUGCUGCUGCUGCUGCUGCUGCUGCUGCUGCUGCUGCUGCUGCUGCUGCUGCUGCUGCUGCUGCUGCUGCUGCUGGGGGGAUCAGUGACCA
- binding result (hnRNP H (recombinant) [3]): no binding
